Test results as given in article PMC4809751.

Biological target: ZbmA, the zorbamycin (ZBM)-binding protein of Streptomyces flavoviridis ATCC21892 (unmodified, as cocrystallised with Cu(II)-ZBM) (Streptomyces flavoviridis ATCC21892)
Assay: crystal structure

stoichiometry N: 2
Substance: ZbmA, the zorbamycin (ZBM)-binding protein of Streptomyces flavoviridis ATCC21892 (unmodified, as cocrystallised with Cu(II)-ZBM) (natural protein)
